Where two headings read alike, the source gives them in different places.
Legend:
[1] = tested on: IgG molecules present in normal human sera; assay: Serum response analysis: ELISA of human serum IgG binding to albumin binding polypeptides
Experimental: Each serum sample was tested as a singlet.

[2] = tested on: CD3+ CD4+ T cells

| Molecule | reactivity with serum IgG (average OD-value and percentage of serum with IgG binding) ([1]; 126 positive human sera, diluted 50 times) | reactivity with serum IgG (average OD-value and percentage of serum with IgG binding) [1] | immunogenicity definition [2] | number of responding individuals [2] |
| --- | --- | --- | --- | --- |
| CC[C@H](C)[C@H](NC(=O)[C@H](Cc1c[nH]cn1)NC(=O)[C@H](CC(C)C)NC(=O)[C@H](CCCCN)NC(=O)[C@H](CC(C)C)NC(=O)[C@H](C)NC(=O)[C@H](CCC(=O)O)NC(=O)[C@@H](NC(=O)CNC(=O)[C@H](CCC(=O)O)NC(=O)[C@@H](NC(=O)[C@@H](NC(=O)[C@H](CCCCN)NC(=O)[C@H](C)NC(=O)[C@H](CCCCN)NC(=O)[C@H](CC(N)=O)NC(=O)[C@@H](NC(=O)[C@H](CC(C)C)NC(=O)[C@H](CCCNC(=N)N)NC(=O)[C@H](CCCCN)NC(=O)[C@H](Cc1ccc(O)cc1)NC(=O)[C@H](Cc1ccccc1)NC(=O)[C@H](CC(=O)O)NC(=O)[C@H](CO)NC(=O)[C@@H](NC(=O)CNC(=O)[C@H](Cc1ccc(O)cc1)NC(=O)[C@H](CCCCN)NC(=O)[C@H](CC(=O)O)NC(=O)[C@H](CC(C)C)NC(=O)[C@H](CCC(=O)O)NC(=O)[C@H](CCCNC(=N)N)NC(=O)[C@H](CC(N)=O)NC(=O)[C@H](C)NC(=O)[C@H](CC(C)C)NC(=O)[C@@H](NC(=O)[C@H](CCCCN)NC(=O)[C@H](C)NC(=O)[C@H](CCC(=O)O)NC(=O)[C@H](C)NC(=O)[C@H](CC(C)C)NC(=O)[C@H](CO)NC(=O)[C@H](CO)NC(=O)CN)C(C)C)C(C)C)[C@@H](C)CC)[C@@H](C)O)C(C)C)C(C)C)C(=O)N[C@@H](CC(C)C)C(=O)N[C@@H](C)C(=O)N[C@@H](C)C(=O)N[C@@H](CC(C)C)C(=O)N1CCC[C@H]1C(=O)O [PEP06923, reference compound] | highest | – | – | – |
| CC[C@H](C)[C@H](NC(=O)[C@H](C)NC(=O)[C@H](CC(=O)O)NC(=O)[C@H](CCCCN)NC(=O)[C@H](CC(C)C)NC(=O)[C@H](C)NC(=O)[C@H](CCC(=O)O)NC(=O)[C@@H](NC(=O)CNC(=O)[C@H](CCC(=O)O)NC(=O)[C@@H](NC(=O)[C@@H](NC(=O)[C@H](CCCCN)NC(=O)[C@H](C)NC(=O)[C@H](CCCCN)NC(=O)[C@H](CC(=O)O)NC(=O)[C@@H](NC(=O)[C@H](CC(C)C)NC(=O)[C@H](CCCNC(=N)N)NC(=O)[C@H](CCCCN)NC(=O)[C@H](Cc1ccc(O)cc1)NC(=O)[C@H](Cc1ccccc1)NC(=O)[C@H](CC(=O)O)NC(=O)[C@H](CO)NC(=O)[C@@H](NC(=O)CNC(=O)[C@H](Cc1ccc(O)cc1)NC(=O)[C@H](CCCCN)NC(=O)[C@H](CC(=O)O)NC(=O)[C@H](CC(C)C)NC(=O)[C@H](CCC(=O)O)NC(=O)[C@H](C)NC(=O)[C@H](CC(N)=O)NC(=O)[C@H](C)NC(=O)[C@H](C)NC(=O)[C@H](CCC(=O)O)NC(=O)[C@H](CCCCN)NC(=O)[C@H](C)NC(=O)[C@H](CO)NC(=O)[C@H](C)NC(=O)[C@H](CC(C)C)NC(=O)[C@H](CO)NC(=O)[C@H](CO)NC(=O)CN)C(C)C)[C@@H](C)CC)[C@@H](C)O)C(C)C)C(C)C)C(=O)N[C@@H](CC(C)C)C(=O)N[C@@H](C)C(=O)N[C@@H](C)C(=O)N[C@@H](CC(C)C)C(=O)N1CCC[C@H]1C(=O)O [PEP07844] | – | highest | – | – |
| CC[C@H](C)[C@H](NC(=O)[C@H](CCC(=O)O)NC(=O)[C@H](CC(=O)O)NC(=O)[C@@H](NC(=O)[C@H](CC(C)C)NC(=O)[C@H](C)NC(=O)[C@H](CCCCN)NC(=O)[C@@H](NC(=O)CNC(=O)[C@H](CCC(=O)O)NC(=O)[C@@H](NC(=O)[C@@H](NC(=O)[C@H](CCCCN)NC(=O)[C@H](C)NC(=O)[C@H](CC(N)=O)NC(=O)[C@H](CC(N)=O)NC(=O)[C@@H](NC(=O)[C@H](CC(C)C)NC(=O)[C@H](CC(N)=O)NC(=O)[C@H](CCCCN)NC(=O)[C@H](Cc1ccc(O)cc1)NC(=O)[C@H](Cc1ccc(O)cc1)NC(=O)[C@H](CC(=O)O)NC(=O)[C@H](CO)NC(=O)[C@@H](NC(=O)CNC(=O)[C@H](Cc1ccc(O)cc1)NC(=O)[C@H](CCCCN)NC(=O)[C@H](CC(=O)O)NC(=O)[C@H](CC(C)C)NC(=O)[C@H](CCC(=O)O)NC(=O)[C@H](CCCNC(=N)N)NC(=O)[C@H](CC(N)=O)NC(=O)[C@H](C)NC(=O)[C@H](CC(C)C)NC(=O)[C@@H](NC(=O)[C@H](CCCCN)NC(=O)[C@H](C)NC(=O)[C@H](CCC(=O)O)NC(=O)[C@H](C)NC(=O)[C@H](CC(C)C)NC(=O)CN)C(C)C)C(C)C)[C@@H](C)CC)[C@@H](C)O)C(C)C)C(C)C)[C@@H](C)CC)C(=O)N[C@@H](CC(C)C)C(=O)N[C@@H](C)C(=O)N[C@@H](C)C(=O)N[C@@H](CC(C)C)C(=O)N1CCC[C@H]1C(=O)O [PEP07913, reference compound] | – | highest | – | – |
| CC[C@H](C)[C@H](NC(=O)[C@H](C)NC(=O)[C@H](CC(=O)O)NC(=O)[C@H](CCCCN)NC(=O)[C@H](CC(C)C)NC(=O)[C@H](C)NC(=O)[C@H](CCC(=O)O)NC(=O)[C@@H](NC(=O)CNC(=O)[C@H](CCC(=O)O)NC(=O)[C@@H](NC(=O)[C@@H](NC(=O)[C@H](CCCCN)NC(=O)[C@H](C)NC(=O)[C@H](CCCCN)NC(=O)[C@H](CC(=O)O)NC(=O)[C@@H](NC(=O)[C@H](CC(C)C)NC(=O)[C@H](CCCNC(=N)N)NC(=O)[C@H](CCCCN)NC(=O)[C@H](Cc1ccc(O)cc1)NC(=O)[C@H](Cc1ccccc1)NC(=O)[C@H](CC(=O)O)NC(=O)[C@H](CO)NC(=O)[C@@H](NC(=O)CNC(=O)[C@H](Cc1ccc(O)cc1)NC(=O)[C@H](CO)NC(=O)[C@H](CC(=O)O)NC(=O)[C@H](CC(C)C)NC(=O)[C@H](CCC(=O)O)NC(=O)[C@H](C)NC(=O)[C@H](CC(N)=O)NC(=O)[C@H](C)NC(=O)[C@H](C)NC(=O)[C@H](CCC(=O)O)NC(=O)[C@H](CCCCN)NC(=O)[C@H](C)NC(=O)[C@H](CCC(=O)O)NC(=O)[C@H](C)NC(=O)[C@H](CC(C)C)NC(=O)CN)C(C)C)[C@@H](C)CC)[C@@H](C)O)C(C)C)C(C)C)C(=O)N[C@@H](CC(C)C)C(=O)N[C@@H](C)C(=O)N[C@@H](C)C(=O)N[C@@H](CC(C)C)C(=O)N1CCC[C@H]1C(=O)O [PEP07914] | – | least reactivity | non-immunogenic | 2 |
| CC[C@H](C)[C@H](NC(=O)[C@H](C)NC(=O)[C@H](CC(=O)O)NC(=O)[C@H](CCCCN)NC(=O)[C@H](CC(C)C)NC(=O)[C@H](C)NC(=O)[C@H](CCC(=O)O)NC(=O)[C@@H](NC(=O)CNC(=O)[C@H](CCC(=O)O)NC(=O)[C@@H](NC(=O)[C@@H](NC(=O)[C@H](CCCCN)NC(=O)[C@H](C)NC(=O)[C@H](CCCCN)NC(=O)[C@H](CC(=O)O)NC(=O)[C@@H](NC(=O)[C@H](CC(C)C)NC(=O)[C@H](CCCNC(=N)N)NC(=O)[C@H](CCCCN)NC(=O)[C@H](Cc1ccc(O)cc1)NC(=O)[C@H](Cc1ccccc1)NC(=O)[C@H](CC(=O)O)NC(=O)[C@H](CO)NC(=O)[C@@H](NC(=O)CNC(=O)[C@H](Cc1ccc(O)cc1)NC(=O)[C@H](CSC1CC(=O)N(CCNC(=O)CN2CCN(CC(=O)O)CCN(CC(=O)O)CCN(CC(=O)O)CC2)C1=O)NC(=O)[C@H](CC(=O)O)NC(=O)[C@H](CC(C)C)NC(=O)[C@H](CCC(=O)O)NC(=O)[C@H](C)NC(=O)[C@H](CC(N)=O)NC(=O)[C@H](C)NC(=O)[C@H](C)NC(=O)[C@H](CCC(=O)O)NC(=O)[C@H](CCCCN)NC(=O)[C@H](C)NC(=O)[C@H](CO)NC(=O)[C@H](C)NC(=O)[C@H](CC(C)C)NC(=O)CN)C(C)C)[C@@H](C)CC)[C@@H](C)O)C(C)C)C(C)C)C(=O)N[C@@H](CC(C)C)C(=O)N[C@@H](C)C(=O)N[C@@H](C)C(=O)N[C@@H](CC(C)C)C(=O)N1CCC[C@H]1C(=O)O (stereo partly shown) [PEP07968] | – | least reactivity | non-immunogenic | 1 |
| Keyhole Limpet Hemocyanin [KLH, reference compound] | – | – | – | 51 |
